Paper PMC11580166, “VPS26 Moonlights as a β-Arrestin-like Adapter for a 7-Transmembrane RGS Protein in Arabidopsis thaliana” (Biochemistry, 2024)
Residue numbers refer to the chain shown, from its start. In names and notes the source's numbering stands. Where no end group is shown, it is not given here. [ ]: non-standard residue; d: D form. pS = N[C@@H](COP(=O)(O)O)C(=O)O

T1: VPS26A/VPS26B heterodimer (Arabidopsis thaliana, UniProt Q9FJD0 1-302; Q9T091 1-303)
T1 chain 1: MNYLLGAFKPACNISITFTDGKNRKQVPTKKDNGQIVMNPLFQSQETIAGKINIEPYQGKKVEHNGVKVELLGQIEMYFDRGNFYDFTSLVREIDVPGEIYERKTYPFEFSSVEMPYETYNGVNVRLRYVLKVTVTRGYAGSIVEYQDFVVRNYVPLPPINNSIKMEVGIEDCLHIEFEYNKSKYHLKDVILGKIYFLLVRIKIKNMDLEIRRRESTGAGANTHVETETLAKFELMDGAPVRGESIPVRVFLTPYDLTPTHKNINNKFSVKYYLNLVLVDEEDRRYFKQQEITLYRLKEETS
T1 chain 2: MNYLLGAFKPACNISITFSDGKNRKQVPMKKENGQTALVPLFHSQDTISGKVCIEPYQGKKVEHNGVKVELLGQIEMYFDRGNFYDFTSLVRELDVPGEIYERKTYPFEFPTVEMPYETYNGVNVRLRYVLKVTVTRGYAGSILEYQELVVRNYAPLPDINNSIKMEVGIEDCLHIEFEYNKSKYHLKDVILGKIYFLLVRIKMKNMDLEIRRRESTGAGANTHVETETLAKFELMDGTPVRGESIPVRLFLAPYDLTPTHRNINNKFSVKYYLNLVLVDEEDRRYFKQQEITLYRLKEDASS

T2: Full-length AtRGS1 with a phosphorylated C-tail peptide ligated by sortase A (Arabidopsis thaliana, phosphoserine at 428, 431 and 435)
T2 chain: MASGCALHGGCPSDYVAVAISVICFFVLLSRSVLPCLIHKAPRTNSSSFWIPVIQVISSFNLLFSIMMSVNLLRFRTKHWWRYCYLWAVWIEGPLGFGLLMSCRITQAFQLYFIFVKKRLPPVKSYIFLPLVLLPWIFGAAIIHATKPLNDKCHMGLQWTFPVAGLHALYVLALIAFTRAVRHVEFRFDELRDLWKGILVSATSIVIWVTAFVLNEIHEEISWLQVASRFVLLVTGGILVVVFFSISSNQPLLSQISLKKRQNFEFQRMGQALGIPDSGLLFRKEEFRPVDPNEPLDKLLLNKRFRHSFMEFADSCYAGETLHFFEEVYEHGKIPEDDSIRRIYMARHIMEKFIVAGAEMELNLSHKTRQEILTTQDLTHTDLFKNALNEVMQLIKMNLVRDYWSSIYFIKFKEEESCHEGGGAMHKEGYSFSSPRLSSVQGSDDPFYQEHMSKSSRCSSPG

T3: Vacuolar Protein Sorting-Associated 26B (AtVPS26B) (Arabidopsis thaliana, UniProt Q9T091 1-303)
T3 chain: T1 chain 2

T4: Vacuolar Protein Sorting-Associated 26A (AtVPS26A) (Arabidopsis thaliana, UniProt Q9FJD0 1-302)
T4 chain: T1 chain 1

B1: AtRGS1 truncated C tail peptide (A421-E447), unphosphorylated (peptide)
peptide: GGGAMHKEGYSFSSPRLSSVQGSDDPFYQE
notes: N-terminal GGG added to the peptide; AtRGS1 C-terminal tail, Arabidopsis thaliana, UniProt Q8H1F2, residues A421-E447; also called ΔC tail; RGS1 delta C-tail; source: synthetic peptide (Tufts University Peptide Core Facility)
B2: VPS26B Y85A/E93A mutant (natural protein, Arabidopsis thaliana, UniProt Q9T091 1-303, looked up)
chain: T1 chain 2 with Y85A, E93A
notes: AtVPS26B, Arabidopsis thaliana, UniProt Q9T091, with Y85A and E93A
B3: VPS26A/VPS26B heterodimer (complex, Arabidopsis thaliana)
chain 1: T1 chain 1
chain 2: T1 chain 2
notes: AtVPS26A, Arabidopsis thaliana, UniProt Q9FJD0, as m1; AtVPS26B, Arabidopsis thaliana, UniProt Q9T091, as m2; In the number-and-brightness rows the id stands for the endogenous heterodimer of the plant; also called VPS26A/B; VPS26A/B dimer; source: E. coli BL21 (DE3), each subunit purified, mixed; copies: 1 + 1
B4: Vacuolar Protein Sorting-Associated 26A (AtVPS26A) (natural protein, Arabidopsis thaliana, UniProt Q9FJD0 1-302, looked up)
chain: T1 chain 1
notes: AtVPS26A, Arabidopsis thaliana, UniProt Q9FJD0, gene At5g53530; Fluorescently labelled (Monolith RED-NHS or RED-MALEIMIDE kit) when it was the labelled partner in MST; the His-SUMO tag may have been kept in mass photometry (surmise); also called AtVSP26A; source: E. coli BL21 (DE3), purified (nickel resin, ULP1 cleavage, second nickel, SEC)
B5: AtRGS1 RGS domain plus C-terminal tail (residues 284-459) (domain or fragment)
chain: KEEFRPVDPNEPLDKLLLNKRFRHSFMEFADSCYAGETLHFFEEVYEHGKIPEDDSIRRIYMARHIMEKFIVAGAEMELNLSHKTRQEILTTQDLTHTDLFKNALNEVMQLIKMNLVRDYWSSIYFIKFKEEESCHEAMHKEGYSFSSPRLSSVQGSDDPFYQEHMSKSSRCSSPG
B6: AtRGS1 pSer C tail peptide (A421-G459, phosphorylated at S428, S431, S435) (peptide)
peptide: GGGAMHKEGY[pS]FS[pS]PRL[pS]SVQGSDDPFYQEHMSKSSRCSSPG
notes: N-terminal GGG added to the peptide; AtRGS1 C-terminal tail, Arabidopsis thaliana, UniProt Q8H1F2, residues A421-G459; Purity 87%; also called RGS1 pC-tail; ptail; source: synthetic peptide (UNC Peptide Core Facility)
B7: AtRGS1 C tail peptide (A421-G459), unphosphorylated (peptide)
peptide: GGGAMHKEGYSFSSPRLSSVQGSDDPFYQEHMSKSSRCSSPG
notes: N-terminal GGG added to the peptide; AtRGS1 C-terminal tail, Arabidopsis thaliana, UniProt Q8H1F2, residues A421-G459; Purity 99%; also called unphosphorylated C-tail; source: synthetic peptide (UNC Peptide Core Facility)

Assays:
[1] = biological target: AtGPA1 (Arabidopsis thaliana) (UniProt P18064); details: cited from earlier work
[2] = biological target: T1, VPS26A/VPS26B heterodimer; assay: ITC
[3] = biological target: B3; assay: MST; 20 nM fluorescence-labelled protein (RED-NHS or RED-MALEIMIDE), ligand dilution series, 25 °C, PBS pH 7.4, 0.05% Tween-20; apparent Kd; averages of 2 to 4 experiments; details: both partners purified
[4] = biological target: B4; assay: as above; details: both partners purified
[5] = biological target: T2, Full-length AtRGS1 with a …; assay: mass photometry; purified AtRGS1 in detergent micelle (mixture of about 50% tail-ligated and truncated protein) with VPS26A/B heterodimer added; details: both partners purified
[6] = biological target: T5, Vacuolar Protein Sorting-Associated 26B (AtVPS26B) (Arabidopsis thaliana, UniProt Q9T091 1-303); assay: MST; 20 nM fluorescence-labelled protein (RED-NHS or RED-MALEIMIDE), ligand dilution series, 25 °C, PBS pH 7.4, 0.05% Tween-20; apparent Kd; averages of 2 to 4 experiments; details: both partners purified
T5 construct: AtVPS26B, Arabidopsis thaliana, UniProt Q9T091, gene At4g27690; the His-SUMO tag may have been kept in mass photometry (surmise); also called VSP26B; source: E. coli BL21 (DE3), purified (nickel resin, ULP1 cleavage, second nickel, SEC)

[7] = biological target: T3, Vacuolar Protein Sorting-Associated 26B …; assay: ITC
[8] = biological target: T4, Vacuolar Protein Sorting-Associated 26A …; assay: ITC
[9] = biological target: Vacuolar Protein Sorting-Associated 26A (AtVPS26A) (Arabidopsis thaliana) (UniProt Q9FJD0); assay: MST; 20 nM fluorescence-labelled protein (RED-NHS or RED-…), ligand dilution series, 25 °C, PBS pH 7.4, 0.05% Tween-20; apparent Kd; averages of 2 to 4 experiments
[10] = biological target: Vacuolar Protein Sorting-Associated 26B (AtVPS26B) (Arabidopsis thaliana) (UniProt Q9T091); assay: as above
[11] = biological target: T1, VPS26A/VPS26B heterodimer; assay: ITC; phosphorylated S428, S431, S435
[12] = biological target: T3, Vacuolar Protein Sorting-Associated 26B …; assay: ITC; phosphorylated S428, S431, S435
[13] = biological target: T4, Vacuolar Protein Sorting-Associated 26A …; assay: ITC; phosphorylated S428, S431, S435

Sequence of AtGPA1 (Arabidopsis thaliana) (P18064 2-383): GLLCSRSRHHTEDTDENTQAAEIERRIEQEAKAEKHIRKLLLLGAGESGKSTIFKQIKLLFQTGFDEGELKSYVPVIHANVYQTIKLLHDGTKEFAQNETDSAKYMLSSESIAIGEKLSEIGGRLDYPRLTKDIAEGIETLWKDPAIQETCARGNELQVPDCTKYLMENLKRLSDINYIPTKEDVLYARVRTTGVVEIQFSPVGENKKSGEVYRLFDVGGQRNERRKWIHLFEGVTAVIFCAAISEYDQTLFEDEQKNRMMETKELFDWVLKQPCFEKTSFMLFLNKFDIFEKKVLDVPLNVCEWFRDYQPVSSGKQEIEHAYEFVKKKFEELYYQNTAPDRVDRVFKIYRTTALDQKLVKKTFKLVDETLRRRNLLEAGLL

Molecule: AtRGS1 (from UniProt Q8H1F2)
Kd [1]: 125 nM

Molecule: B1
Kd [2]: 123 nM
binding result [3]: binds

Molecule: B2
fold lower heterodimerization than VPS26B wildtype [4]: ~10 fold

Molecule: B3
stoichiometry N [5]: 1

Molecule: B4
Kd [6]: ~18 nM

Molecule: B5
Kd [2]: 22 nM
Kd [7]: 40 nM
Kd [8]: 38 nM
Kd [9]: 34 nM
Kd [10]: 35 nM

Molecule: B6
Kd [11]: 12 nM
Kd [12]: 17 nM
Kd [13]: 71 nM
fold higher affinity than the unphosphorylated C-tail [3]: ~5 fold

Molecule: B7
Kd [2]: 63 nM
Kd [8]: 317 nM
Kd [4]: 217 nM
Kd [6]: 253 nM
